Positions count from the first letter of the chain named. Values belong to the binder of their own block, whether it stands above or below them.
Biological target: human RXFP1, full-length (human), Q9HBX9
Experiment: cell-based or functional assay

Chain of human RXFP1, full-length (human), Q9HBX9 (Q9HBX9 whole entry): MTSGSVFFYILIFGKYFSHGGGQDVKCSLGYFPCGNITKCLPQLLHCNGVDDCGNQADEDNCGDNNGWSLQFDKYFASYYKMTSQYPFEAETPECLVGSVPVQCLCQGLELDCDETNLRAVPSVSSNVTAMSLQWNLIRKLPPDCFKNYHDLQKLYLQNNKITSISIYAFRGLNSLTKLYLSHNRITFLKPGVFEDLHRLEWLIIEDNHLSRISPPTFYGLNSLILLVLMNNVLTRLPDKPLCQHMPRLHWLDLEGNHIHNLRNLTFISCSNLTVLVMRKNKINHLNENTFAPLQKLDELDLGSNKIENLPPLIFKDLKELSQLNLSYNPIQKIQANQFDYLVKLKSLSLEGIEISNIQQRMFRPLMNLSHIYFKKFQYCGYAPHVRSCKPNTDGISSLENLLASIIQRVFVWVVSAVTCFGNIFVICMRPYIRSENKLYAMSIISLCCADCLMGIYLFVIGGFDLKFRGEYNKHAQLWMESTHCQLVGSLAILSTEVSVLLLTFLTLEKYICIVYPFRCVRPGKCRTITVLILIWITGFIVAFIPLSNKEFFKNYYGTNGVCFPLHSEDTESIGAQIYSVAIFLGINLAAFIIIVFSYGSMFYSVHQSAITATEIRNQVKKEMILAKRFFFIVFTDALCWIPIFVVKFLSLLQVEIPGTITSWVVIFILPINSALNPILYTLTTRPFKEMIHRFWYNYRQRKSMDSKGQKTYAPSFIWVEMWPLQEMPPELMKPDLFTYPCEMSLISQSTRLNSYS

Potency Assay EC50 (nM), transient hRXFP1 cAMP assay: 117 nM
B1: SEQ ID NO: 79 (Fc fusion)
chain: DKTHTCPPCPAPEAAGGPSVFLFPPKPKDTLMISRTPEVTCVVVDVSHEDPEVKFNWYVDGVEVHNAKTKPREEQYNSTYRVVSVLTVLHQDWLNGKEYKCKVSNKALAAPIEKTISKAKGQPREPQVYTLPPSRDELTKNQVSLTCLVKGFYPSDIAVEWESNGQPENNYKTTPPVLDSDGSFFLYSKLTVDKSRWQQGNVFSCSVLHEALHSHYTQKSLSLSPGKGGSDSWQEEVIKLCGRELVRAQIAICGKSTGGGEGGGEGGGEGRQDYSALANKCCHVGCTKRSLAQFC

Potency Assay EC50 (nM), transient hRXFP1 cAMP assay: 18.9 nM
B2: SEQ ID NO: 82 (Fc fusion)
chain: B1 chain with G260E, E261G, G262E, G267E, E269G, G270S, D273L

Potency Assay EC50 (nM), transient hRXFP1 cAMP assay: 54.4 nM
B3: SEQ ID NO: 85 (Fc fusion)
chain: B1 chain with G260E, E261G, G262E, G267E, E269G, G270S

Potency Assay EC50 (nM), transient hRXFP1 cAMP assay: 23.4 nM
B4: SEQ ID NO: 78 (Fc fusion)
chain: DKTHTCPPCPAPEAAGGPSVFLFPPKPKDTLMISRTPEVTCVVVDVSHEDPEVKFNWYVDGVEVHNAKTKPREEQYNSTYRVVSVLTVLHQDWLNGKEYKCKVSNKALAAPIEKTISKAKGQPREPQVYTLPPSRDELTKNQVSLTCLVKGFYPSDIAVEWESNGQPENNYKTTPPVLDSDGSFFLYSKLTVDKSRWQQGNVFSCSVLHEALHSHYTQKSLSLSPGGGSDSWQEEVIKLCGRELVRAQIAICGKSTGGGEEGGGEEGGGRQLYSALANKCCHVGCTKRSLAQFC

Potency Assay EC50 (nM), transient hRXFP1 cAMP assay: 426 nM
B5: SEQ ID NO: 81 (Fc fusion)
chain: B4 chain with E261G, G264E, E265G, E266G, G268E, L272D

Potency Assay EC50 (nM), transient hRXFP1 cAMP assay: 41.9 nM
B6: SEQ ID NO: 84 (Fc fusion)
chain: B4 chain with G259E, E260G, G264E, E265G, G269S

Potency Assay EC50 (nM), transient hRXFP1 cAMP assay: 162 nM
B7: SEQ ID NO: 80 (Fc fusion)
chain: B4 chain with E261G, G264E, E265G, E266G, G268E, L272D, Q292R

Potency Assay EC50 (nM), transient hRXFP1 cAMP assay: 9.3 nM
B8: SEQ ID NO: 83 (Fc fusion)
chain: B4 chain with G259E, E260G, G264E, E265G, G269S, Q292R
